Source: patent US6448377

Target: β2 adrenoceptor, tagged at the amino-terminus with the FLAG epitope (UniProt P07550)
Assay: cell-based or functional assay

membrane-tethered Gsα (tetGsα) (from UniProt P07550 1-64; P07550 343-412)
GTPγS-sensitive high-affinity agonist binding sites: 30% | basal GTPase activity, tetGsα membranes compared to Gsα membranes: 1.6 fold | isoproterenol-stimulated GTPase activity, tetGsα membranes compared to Gsα membranes: 2.8 fold
